Consider 4 molecules from article PMC5027281 (Nature Communications, 2016).

The target in assay [1] is T1, Recombinant full-length HA of A/Perth/16/09 (H3-PE09) (influenza A virus A/Perth/16/09). The experiment in a line: BLI. As to conditions: both partners purified.
Assay [2] has as its target T1, Recombinant full-length HA of …. The experiment in a line: BLI. As to conditions: both partners purified. This is another data set of the same source.

B1: 3I14-mHgL IgG1 (mature heavy chain, germline light chain) (antibody, V domains shown)
VH: QVQLLESGGGVVQPGRSLRLSCAASGFTFSNYGMHWVRQAPGKGLEWVAIISFDGSKKYYANSVKGRSTISRDNSKNTLSLQMNSLGPEDTALYYCAKLPSPYYFDSRFVWVAASAFHFWGQGILVTVSS
VL: not shown
By Kd is commonly meant the constant that tells how readily two partners part at equilibrium. What is called koff is the rate constant with which the complex falls apart. As usually defined, the kon is the rate constant with which the complex forms. Consider B1, for which, in assay [1], the equilibrium dissociation constant (Kd) came out at 658 pM, the koff came to 0.000126 s⁻¹ and the kon is 192000 M⁻¹ s⁻¹.

B2: 3I14 VLD94N variant IgG1 (antibody, V domains shown)
VH: QVQLLESGGGVVQPGRSLRLSCAASGFTFSNYGMHWVRQAPGKGLEWVAIISFDGSKKYYANSVKGRSTISRDNSKNTLSLQMNSLGPEDTALYYCAKLPSPYYFDSRFVWVAASAFHFWGQGILVTVSS
VL: NFMLTQPPSASGTPGQRVTISCSGSSSNIGGNTVHWFQQLPGTAPKLLIYTNSLRPSGVPDRFSGSKSGTSASLAISGLQSEDEADYYCAAWDNSLNGQVFGGGTKLTVL
Regarding B2, in assay [2], the Kd stood at 308 pM, the koff turned out to be 5.44e-05 s⁻¹ and the kon was 177000 M⁻¹ s⁻¹.

B3: 3I14-GL IgG1 (VH and VL germline versions) (antibody, V domains shown)
VH: QVQLVESGGGVVQPGRSLRLSCAASGFTFSSYGMHWVRQAPGKGLEWVAVISYDGSNKYYADSVKGRFTISRDNSKNTLYLQMNSLRAEDTAVYYCAKLPSPYYYDSRFVWVAASYFDYWGQGTLVTVSS
VL: not shown
In the case of B3, in assay [1], the Kd came out at 4020 pM, the koff stood at 0.000556 s⁻¹ and the kon stood at 139000 M⁻¹ s⁻¹.

B4: 3I14-gHmL IgG1 (germline heavy chain, mature light chain) (antibody, V domains shown)
VH: QVQLVESGGGVVQPGRSLRLSCAASGFTFSSYGMHWVRQAPGKGLEWVAVISYDGSNKYYADSVKGRFTISRDNSKNTLYLQMNSLRAEDTAVYYCAKLPSPYYYDSRFVWVAASYFDYWGQGTLVTVSS
VL: NFMLTQPPSASGTPGQRVTISCSGSSSNIGGNTVHWFQQLPGTAPKLLIYTNSLRPSGVPDRFSGSKSGTSASLAISGLQSEDEADYYCAAWDDSLNGQVFGGGTKLTVL
Regarding B4, in assay [1], the Kd was found to be 733 pM, the koff is 0.000125 s⁻¹ and the kon came to 171000 M⁻¹ s⁻¹.
